From doi:10.1101/2022.09.11.507491

Molecular target: HA-CXCR4-RLuc3 (UniProt P61073)
Test: FRET or BRET

UniProt P61073, sequence (P61073 whole entry): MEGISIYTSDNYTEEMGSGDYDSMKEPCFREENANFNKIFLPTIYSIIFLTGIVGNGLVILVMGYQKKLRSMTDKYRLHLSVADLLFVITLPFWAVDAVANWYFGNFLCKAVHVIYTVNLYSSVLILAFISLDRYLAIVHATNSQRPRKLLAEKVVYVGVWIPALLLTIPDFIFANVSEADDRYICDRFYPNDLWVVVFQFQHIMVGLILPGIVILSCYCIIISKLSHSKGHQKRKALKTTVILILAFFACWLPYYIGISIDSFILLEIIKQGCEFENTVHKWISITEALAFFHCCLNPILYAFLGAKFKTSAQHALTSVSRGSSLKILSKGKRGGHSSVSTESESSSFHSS

Substance	Kd of BRET acceptor saturation (x axis: acceptor gMFI)
mVenus-mini-Gαs/i(Y320F)	13.4
mVenus-miniGαs/i WT	7.1
mVenus-miniGαs/i(Y320E)	16.7
